From US20220025021A1 (BETH ISRAEL DEACONESS MEDICAL CENTER, published 2022)
Numbering of substitutions follows the chain as printed.

B1: MS-94 (antibody)
VH: not shown
VL: DIVLTQSPHSLSVTPGEPASISCKSSHSLIHGDRNNYLAWYVQKPGRSPQLLIYLASSRASGVPDRFSGSGSDKDFTLKISRVETEDVGTYYCMQGRESPWTFGQGTKVDIKRTVAAPSVFIFPPSDEQLKSGTASVVCLLNNFYPREAKVQWKVDNALQSGNSQESVTEQDSKDSTYSLSSTLTLSKADYEKHKVYACEVTHQGLSSPVTKSFNRGEC
B2: MS-117 (antibody)
VH: not shown
VL: B1 VL with I2F, H9L, D73G, T85A
B3: MS-103 (antibody)
VH: not shown
VL: B1 VL with H9L
B4: MS-105 (antibody)
VH: not shown
VL: B1 VL with H9L, P18S, T85A
B5: MS-100 (antibody)
VH: not shown
VL: B1 VL with I2F, D73G
B6: MS-118 (antibody)
VH: not shown
VL: B1 VL with H9L, D73G, T85A
B7: MS-102 (antibody)
VH: not shown
VL: B1 VL with I2F, P18S, D73G, T85A
B8: MS-99 (antibody)
VH: not shown
VL: B1 VL with I2F, H9L, P18S, T85A

target: HIV-1 envelope glycoprotein of pseudovirus SC422661.8 (HIV-1); experiment: cell-based or functional assay

Binder	IC50 (neutralization in TZM.bl cells) [µg/mL]	IC80 (neutralization in TZM.bl cells) [µg/mL]
B1	0.315	1.23
B2	0.168	1.33
B3	0.408	1.99
B4	0.44	3.51
B5	0.184	1.31
B6	0.244	2.05
B7	0.17	1.21
B8	0.294	1.46

target: HIV-1 envelope glycoprotein of pseudovirus RHPA4259.7 (HIV-1); experiment: cell-based or functional assay

Binder	IC50 (neutralization in TZM.bl cells) [µg/mL]	IC80 (neutralization in TZM.bl cells) [µg/mL]
B1	0.358	0.985
B2	0.201	0.715
B3	0.29	1.33
B4	0.27	1.25
B5	0.142	0.694
B6	0.164	0.785
B7	0.178	0.649
B8	0.257	0.718

target: HIV-1 envelope glycoprotein of pseudovirus DU172.17 (HIV-1); experiment: cell-based or functional assay

Binder	IC50 (neutralization in TZM.bl cells) [µg/mL]	IC80 (neutralization in TZM.bl cells) [µg/mL]
B1	3.03	11.2
B2	1.91	6.49
B3	2.68	10.2
B4	3.06	11.5
B5	1.56	5.25
B6	2.12	8.29
B7	1.16	5.91
B8	1.95	7.14

target: HIV-1 envelope glycoprotein of pseudovirus BB1012-11.TC21 (HIV-1); experiment: cell-based or functional assay

Binder	IC50 (neutralization in TZM.bl cells) [µg/mL]	IC80 (neutralization in TZM.bl cells) [µg/mL]
B1	0.055	0.146
B2	0.03	0.099
B3	0.046	0.155
B4	0.038	0.124
B5	0.029	0.095
B6	0.036	0.117
B7	0.031	0.1
B8	0.032	0.084

target: HIV-1 envelope glycoprotein of pseudovirus CNE52 (HIV-1); experiment: cell-based or functional assay

Binder	IC50 (neutralization in TZM.bl cells) [µg/mL]	IC80 (neutralization in TZM.bl cells) [µg/mL]
B1	0.455	5.18
B2	0.206	1.73
B3	0.432	4.18
B4	0.441	5.04
B5	0.147	2.02
B6	0.42	3.4
B7	0.211	1.87
B8	0.219	1.8

target: HIV-1 envelope glycoprotein of pseudovirus 0260.v5.c36 (HIV-1); experiment: cell-based or functional assay

Binder	IC50 (neutralization in TZM.bl cells) [µg/mL]	IC80 (neutralization in TZM.bl cells) [µg/mL]
B1	0.027	0.095
B2	0.021	0.057
B3	0.03	0.104
B4	0.032	0.11
B5	0.019	0.053
B6	0.019	0.069
B7	0.019	0.053
B8	0.024	0.087
